# Key:
# [1] = target: SARS-CoV-2 Delta (B.1.617.2) spike protein RBD, His-tagged (SARS-CoV-2 Delta (B.1.617.2)) (UniProt P0DTC2); test: SPR
# [2] = target: SARS-CoV-2 Omicron (B.1.1.529) spike protein RBD, His-tagged (SARS-CoV-2 Omicron (B.1.1.529)) (UniProt P0DTC2); test: SPR
substance,measurement,setting,value
decavalent IgM ACE2 decoy (from UniProt Q9BYF1;P01591) (Fc fusion),Kd,[1],0.49 nM
same,koff,[1],0.00013 s⁻¹
same,kon,[1],260000 M⁻¹ s⁻¹
same,Kd,[2],2.4 nM
same,koff,[2],0.00036 s⁻¹
same,kon,[2],150000 M⁻¹ s⁻¹
